According to patent publication US20210198377A1 (XDCEXPLORER SHANGHAI, published 2021):
Each block holds one binder with its values, some of them ahead of it.

Experiments:
[1] = biological target: T1, human TPBG-hFc (human, UniProt Q13641 32-355); test: ELISA, coated human TPBG-hFc 1.0 ug/mL; antibody 0.2 nM
T1 construct: also called immunogen A; hFc tagged TPBG protein; not shown: The human IgG Fc fragment of the pCpC vector (Invitrogen V044-50) and any linker to it
T1 sequence: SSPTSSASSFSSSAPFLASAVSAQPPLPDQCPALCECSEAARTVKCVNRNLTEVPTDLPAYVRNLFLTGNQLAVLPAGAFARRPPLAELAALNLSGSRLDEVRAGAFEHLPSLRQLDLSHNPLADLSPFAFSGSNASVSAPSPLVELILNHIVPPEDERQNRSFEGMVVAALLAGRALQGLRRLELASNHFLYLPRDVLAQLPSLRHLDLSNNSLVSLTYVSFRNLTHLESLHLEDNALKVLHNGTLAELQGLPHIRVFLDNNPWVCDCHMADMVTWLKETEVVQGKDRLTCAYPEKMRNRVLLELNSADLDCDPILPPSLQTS
Protocol: (§1) The purified immunogen A (as for its method of preparation please refer to step 1 in Example 1) diluting with PBS to a final concentration of 1.0 μg/mL was aliquoted into a 96-well ELISA plate at 100 μL per well, and sealed with a parafilm and incubated at 4° C. overnight. The plate was washed twice with plate washing buffer (PBS containing 0.01% (v/v) Tween 20), and blocked with blocking buffer (PBS containing 0.01% (v/v) Tween 20 and 1% (w/w) BSA) at room temperature for 2 h. The blocking buffer was discarded, and 100 μL per well of the purified antibody obtained from Embodiment 2 was added. After incubating at 37° C. for 2 h, the plate was washed for three times with plate washing buffer (PBS containing 0.01% (v/v) Tween 20). HRP (horseradish peroxidase)-labeled secondary antibody (purchased from Sigma) was added and incubated at 37° C. for 2 h, and the plate was washed for three times using plate washing buffer (PBS containing 0.01% (v/v) Tween 20). 100 μL of TMB substrate was aliquoted into each well, incubated at room temperature for 30 min, and 100 μL of stop buffer (1.0N HCl) per well was subsequently added. A₄₅₀ₙₘ values were read using the ELISA plate reader (SpectraMax 384plus purchased from Molecular Device), and the results were shown in FIG. 6 and table 6. […] In Table 6 the IgG control herein is a mice IgG control, the data in the Table are OD₄₅₀ₘₙ values, and Blank means the OD₄₅₀ₘₙ value when there is only PBS buffer in the plate.

[2] = biological target: T1, human TPBG-hFc; test: ELISA, coated human TPBG-hFc 1.0 ug/mL; antibody 0.002 nM
Protocol: as §1

[3] = biological target: T2, mouse TPBG (full length, on cells) (mouse, UniProt Q9Z0L0 32-426); test: FACS on CHO-K1-mTPBG cells
T2 construct: whole, on cells; On transfected CHO-K1 cells; also called mTPBG; CHO-K1-mTPBG
T2 sequence (looked up): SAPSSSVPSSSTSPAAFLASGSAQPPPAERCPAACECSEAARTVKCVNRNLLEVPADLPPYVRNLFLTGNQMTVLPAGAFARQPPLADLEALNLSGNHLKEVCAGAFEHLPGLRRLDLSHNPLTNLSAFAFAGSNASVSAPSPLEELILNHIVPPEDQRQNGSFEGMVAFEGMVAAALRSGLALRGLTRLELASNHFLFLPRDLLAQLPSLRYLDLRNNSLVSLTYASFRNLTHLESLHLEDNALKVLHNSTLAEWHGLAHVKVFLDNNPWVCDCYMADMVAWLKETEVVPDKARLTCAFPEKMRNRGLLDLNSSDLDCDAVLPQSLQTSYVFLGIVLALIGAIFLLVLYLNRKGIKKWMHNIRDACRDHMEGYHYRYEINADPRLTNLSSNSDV
Source text: (§2) The stable cell lines CHO-k1-hTPBG, CHO-k1-cTPBG, CHO-k1-mTPBG (i.e. the CHO-k1-hTPBG 3A2F1, CHO-k1-cTPBG 3F13G4 and CHO-k1-mTPBG 3A3 shown in table 7) and CHO-K1 cells were expanded to a 90% of confluency in T-75 cell culture flasks, the culture medium were removed, and cells were then rinsed twice with HBSS buffer (Hanks Balanced Salt Solution, purchased from Invitrogen) and lysed with enzyme-free cell dissociation buffer (Versene solution purchased from Life technology) and harvested. Harvested cells were rinsed with HBSS buffer twice and counted before diluting with HBSS buffer to 2×10⁶ cells /mL, and 10% goat serum blocking buffer was then added, wherein the percentage is the mass percentage. Cells were incubated on ice for 30 min, and then washed twice with HBSS buffer by centrifugation. The harvested cells were resuspended with FACS buffer (HBSS+1% BSA, wherein the percentage is mass percentage) to a concentration of 2×10⁶ cells /mL. 100 μL per well of the cells was aliquoted to 96-well FACS reaction plates, and 100 μL per well of test sample—the purified TPBG antibody obtaining from Embodiment 2 was added before incubating on ice for 2 h. The plate was washed with the FACS buffer twice by centrifugation, and 100 μL per well of fluorescence (Alexa 488) labeled secondary antibody (purchased from Invitrogen) was then added and incubated on ice for 1 h. The plate was washed with the FACS buffer for three times by centrifugation, follow by resuspending in 100 μL of fixation buffer (4% (v/v) paraformaldehyde). Cells were washed with FACS buffer twice after 10 min, follow by resuspending with 100 μL of FACS buffer. The results were measured and analyzed by FACS (FACS Calibur, purchased from BD). Data analysis was performed by software (CellQuest) to obtain mean fluorescence intensity (MFI) of the cells, follow by calculating EC50 value by software (GraphPad Prism) analysis and data fitting. The analysis results were shown in Table 8 and FIGS. 7-10, and data in FIGS. 7-10 show the mean fluorescence intensity (MFI) of cells.

[4] = biological target: T3, cynomolgus monkey TPBG (full length, on cells) (cynomolgus monkey, UniProt Q4R8Y9 35-420); test: FACS on CHO-K1-cTPBG cells
T3 construct: whole, on cells; On transfected CHO-K1 cells; also called cTPBG; CHO-K1-cTPBG
T3 sequence (looked up): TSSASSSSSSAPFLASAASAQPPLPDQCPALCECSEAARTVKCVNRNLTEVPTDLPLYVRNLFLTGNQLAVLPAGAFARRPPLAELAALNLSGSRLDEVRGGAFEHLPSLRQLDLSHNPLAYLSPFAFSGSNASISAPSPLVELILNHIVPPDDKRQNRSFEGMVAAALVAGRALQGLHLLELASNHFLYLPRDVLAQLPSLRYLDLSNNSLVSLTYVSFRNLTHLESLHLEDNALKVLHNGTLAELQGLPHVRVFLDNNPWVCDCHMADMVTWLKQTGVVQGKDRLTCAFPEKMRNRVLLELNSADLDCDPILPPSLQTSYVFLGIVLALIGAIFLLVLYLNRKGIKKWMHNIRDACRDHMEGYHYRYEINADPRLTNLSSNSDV
Source text: as §2

B2: 12B12C7C3 (antibody, V domains shown)
VH: DVQLVESGGGLVQPGGSRKLSCAASGFTFSNFGMHWVRQAPEKGLEWVAYISSGSTSFYYADTVKGRFTISRDNPKNTLFLQMTSLRSEDTAMYYCSRTNSLLRGFFDAWGAGTTVTVSS
VL: DIVLTQSPASLAVSLGQRATISCRASQSVSSSSYTYLHWYQQKPGQPPKLLIKSASNLESGVPARFSGTGSGTDFTLNIHPVEEEDTATYYCQHSWEIPLTFGAGTKLELK
notes: Mouse hybridoma antibody purified from culture supernatant; also called TPBG antibody; lead antibody
OD450nm [1]: 1.67 OD450nm | OD450nm [2]: 0.13 OD450nm | binding result [3]: no binding | EC50 [4]: 0.59 nM

B3: 37H9C5G2 (antibody, V domains shown)
VH: QVQLQQSDAELVRPGASVKMSCKVSGYTFTDHTIHWMKQRPEQGLEWIGYIYPRDGSGTYNEKFKGKATLTADKSSSTAYMQLNSLTSEDSAVYFCARDGSSHYWYFDVWGTGTTVTVSS
VL: DIQMTQSPASLSASVGETVTITCRASEIIYNYLAWYQQKQGKSPQLLVYNAKTLAEGVPSRFSGSYSGTQFSLNINSLQSEDFGIYYCQHHHDTPLTFGAGTKLDLK
notes: as for B2
OD450nm [1]: 1.55 OD450nm | OD450nm [2]: 0.11 OD450nm | EC50 [3]: 11.1 nM | EC50 [4]: 0.62 nM

B5: 39A11G5F2 (antibody, V domains shown)
VH: QVQLQQSGAELMKPGASMRLSCKATGYTFTGYWLEWIKRRPGHGLEWIGEILPGRGSTNYNEKFKGKATFTAETSSNTAYMQLTSLTTEDSAIYYCARGGRDFDNWGQGTTLTVSS
VL: DIQMTQSTSSLSASLGDRVTISCSASQGINNHLNWYQQKPDGTVKLLIYYTSSLHSGVPSRFSGSGSGTDYSLTISNLEPEDIAIYYCQQFSKLPYTFGGGTKVEMK
notes: as for B2
OD450nm [1]: 1.36 OD450nm | OD450nm [2]: 0.11 OD450nm | EC50 [3]: 1.88 nM | EC50 [4]: 1.35 nM

B9: 106D5G3D10 (antibody, V domains shown)
VH: EVQLVESGGGLVKPGGSLKLSCAASGFTFSDYGMHWVRQAPEKGLEWVGYISSGTYVVYYADTVKGRFTISRDNAKNTLFLQMTSLRSEDTAIYYCSTYGSNPFDYWGQGTTLTVSS
VL: QLVLTQSPAIMSASPGEKVTITCSATSSVSSMHWFQQKPVTSPKLWIYSTSNLASGVPTRFSGSGSGTSYSLTISRMEAEDAATYYCQQRSGYPPIFTFGSGTKLEIK
notes: as for B2
OD450nm [1]: 2.36 OD450nm | OD450nm [2]: 0.16 OD450nm | binding result [3]: no binding | EC50 [4]: 1.26 nM

The remaining binders from weak to strong by EC50 [4], led by results:

OD450nm [1]: 2.62 OD450nm | OD450nm [2]: 0.21 OD450nm | binding result [3]: no binding | EC50 [4]: 2.29 nM
B8: 99E12C7H1 (antibody, V domains shown)
VH: QIQLVQSGPELKKPGETVKISCKPSGYTFTAYGLSWVKQAPGQGFQWMGWINTYSGVPTYTDDFKGRFAFSLETSAGTASLQITNLKNEDTATYFCARSSIPPFEYWGPGTTLTVSS
VL: SFVMTQSPKFLLVSVGDRVTITCKASQSVSNDVAWYQQKPGQPPRVLIYFASNRYTGVPDRFTGSGYGTDFTFTISTVQAEDLALYFCQQDYSSPWTFGGGTKLEIK
notes: as for B2

OD450nm [1]: 1.39 OD450nm | OD450nm [2]: 0.12 OD450nm | binding result [3]: no binding | EC50 [4]: 1.54 nM
B6: 52C9E9F6 (antibody, V domains shown)
VH: QVQLQQSGAELMKPGASVKLSCKATGYTFTGYWIEWIKQRPGHGLEWIGEILPGRGSTDYNEKFKGKATFTADTSSNTAYMQLSSLTTEDSAIYYCTRGRLDFTYWGQGTLVTVSA
VL: DIQMTQTTSSLSASLGDRVTISCSASQGIRNYLNWYQQKPDGTVKLLIYYTSSLHSGVPSRFSGSGSGTDYSLTISNLEPEDIATYYCQQYSKVPWTFGGGTKLEIK
notes: as for B2

OD450nm [1]: 1.76 OD450nm | OD450nm [2]: 0.1 OD450nm | EC50 [3]: 9.07 nM | EC50 [4]: 0.84 nM
B1: 5G4H10G5 (antibody, V domains shown)
VH: EVQLVESGGDLVQPGGSLKLFCAASGFTFSTYGLSWVRQTPDKRLELVATITNNDGSAYYPDSVKGRFTISRDKAKNTLFLQMTSLKSEDTAMYYCARETGFGSSYLFDYWGQGTLVTVSA
VL: NIVMTQTPKFLLVSAGDRVTITCKASQSVSNDVAWYQQKPGQSPKLLIYFATNRYTGVPNRFTGSGYGTEFTFTISSVQAEDLAVYFCQQDYSSPTFGGGTKLEIK
notes: as for B2

OD450nm [1]: 1.89 OD450nm | OD450nm [2]: 0.14 OD450nm | binding result [3]: no binding | EC50 [4]: 0.83 nM
B10: 103E2E9C2 (antibody, V domains shown)
VH: EVQLQQSGPVLVKPGASVKMSCEASGYSFIDYYMSWVKQSRGRSLEWIGVFNPYSGEIIYNQKFKGKATLTVDKSSSTAYMELSSLTSEDSGVYSCARLRISYYAIDYWGQGTSVAVSS
VL: ENVLTQSPAIMSASPGEKVTMTCRATSSVSSGHFHWYQQKSGASPKVWIYSTSNLASGVPARFSGSGSGTSFSLTISSVEAEDVATYFCQQYSGYPLTFGGGTKLEIK
notes: as for B2

OD450nm [1]: 2.15 OD450nm | OD450nm [2]: 0.18 OD450nm | binding result [3]: no binding | EC50 [4]: 0.6 nM
B4: 36A10D8B12 (antibody, V domains shown)
VH: DVQLQESGPGMVKPSQSLSLTCTVTGYSITSGYDWHWIRHFPGNKLEWMGYISYSGNTNYNPSLKSRISITHNTSKNHFFLRLNSVTTEDTATYYCARGYGNWDAMDYWGQGTSVTVSS
VL: DIVMTQSQKFMSTSVGDRVSVTCKASQIVDTNVAWYQQKPGQSPKALISSASYRYSGVPDRFTGSGSGTDFTLTISNVQSEDLAEYFCQQYNSYPLTFGAGTKLELT
notes: as for B2

OD450nm [1]: 1.97 OD450nm | OD450nm [2]: 0.14 OD450nm | binding result [3]: no binding | EC50 [4]: 0.25 nM
B7: 28D4E6A9 (antibody, V domains shown)
VH: DVQLVESGGGLVRPGGSLKLSCAASGFTFSNYVMSWARQSPEKRLEWVAEISTGGSHTYYSDTVTGRFTISRDNAKKALYLEMSSLRSEDTAIYYCIMFYYGSSYSMDYWGQGTSVTVSS
VL: DIQMTQSTSSLSASLGDRITISCRASQDIRNYLNWYQQKPDGTVKLLIYHTSRLHSGVPSRFSGSGSGTDYSLTISNLEQEDIATYFCQQGDTLPLTFGAGTRLELK
notes: as for B2
